The target in test [1] is T1, recombinant L1-Fc fusion protein (human L1-Fc protein comprising the ectodomain of L1) (human, UniProt P32004 20-1120).
T1 construct: extracellular domain; also called L-Fc; L1 antigen; not shown: Fc fragment
As to the kind of experiment: Biacore SPR, L1-Fc on CM5 chip.

Test [2] deals with T1, recombinant L1-Fc fusion protein (human …). Briefly: Biacore SPR, L1-Fc coupled to CM5 chip, antibody as analyte 6-3333 nM.
Another test addresses streptavidin (UniProt P22629 37-163, limits assumed). Briefly: ELISA, plate coated with streptavidin at 5 µg/ml, bacterial supernatants of 8 clones, anti-human kappa HRP conjugate, TMB. The procedure:
Three rows of a 96 well plate were coated with 100 μl L1 antigen comprising the extracellolar domain of the L1 protein fused to an Fc fragment (5 μg/ml) in PBS for 1 hr at room temperature. A further three rows were coated with streptavidin (5 μg/ml) in PBS as a control.
The 96 well plate was washed four times with PBS 0.1% tween followed by the addition of 100 μl of anti-human kappa light chains bound and free antibody HRP conjugate (Sigma A7164) 1:5000 dilution in PBS 1% BSA. The conjugate was incubated for 1 hr at room temperature followed by five washes with PBS 0.1% tween.
The ELISA was developed by the addition of TMB 2-Component Microwell Peroxidase Substrate Kit (Kirkegaard and Perry Laboratories Inc., USA) according to the manufacturer's protocol. At least four L1 binding clones have been observed for each of three single chain antibody versions.
In general terms: In an ELISA, binding on a coated surface is turned into a signal by an enzyme label.

Changes are numbered by the printed parent chain.

Chain of streptavidin (P22629 37-163 limits assumed): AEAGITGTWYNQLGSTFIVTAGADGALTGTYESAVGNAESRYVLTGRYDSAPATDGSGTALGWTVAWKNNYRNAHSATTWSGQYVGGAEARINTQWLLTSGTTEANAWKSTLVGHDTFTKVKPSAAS
T1 sequence (P32004 20-1120): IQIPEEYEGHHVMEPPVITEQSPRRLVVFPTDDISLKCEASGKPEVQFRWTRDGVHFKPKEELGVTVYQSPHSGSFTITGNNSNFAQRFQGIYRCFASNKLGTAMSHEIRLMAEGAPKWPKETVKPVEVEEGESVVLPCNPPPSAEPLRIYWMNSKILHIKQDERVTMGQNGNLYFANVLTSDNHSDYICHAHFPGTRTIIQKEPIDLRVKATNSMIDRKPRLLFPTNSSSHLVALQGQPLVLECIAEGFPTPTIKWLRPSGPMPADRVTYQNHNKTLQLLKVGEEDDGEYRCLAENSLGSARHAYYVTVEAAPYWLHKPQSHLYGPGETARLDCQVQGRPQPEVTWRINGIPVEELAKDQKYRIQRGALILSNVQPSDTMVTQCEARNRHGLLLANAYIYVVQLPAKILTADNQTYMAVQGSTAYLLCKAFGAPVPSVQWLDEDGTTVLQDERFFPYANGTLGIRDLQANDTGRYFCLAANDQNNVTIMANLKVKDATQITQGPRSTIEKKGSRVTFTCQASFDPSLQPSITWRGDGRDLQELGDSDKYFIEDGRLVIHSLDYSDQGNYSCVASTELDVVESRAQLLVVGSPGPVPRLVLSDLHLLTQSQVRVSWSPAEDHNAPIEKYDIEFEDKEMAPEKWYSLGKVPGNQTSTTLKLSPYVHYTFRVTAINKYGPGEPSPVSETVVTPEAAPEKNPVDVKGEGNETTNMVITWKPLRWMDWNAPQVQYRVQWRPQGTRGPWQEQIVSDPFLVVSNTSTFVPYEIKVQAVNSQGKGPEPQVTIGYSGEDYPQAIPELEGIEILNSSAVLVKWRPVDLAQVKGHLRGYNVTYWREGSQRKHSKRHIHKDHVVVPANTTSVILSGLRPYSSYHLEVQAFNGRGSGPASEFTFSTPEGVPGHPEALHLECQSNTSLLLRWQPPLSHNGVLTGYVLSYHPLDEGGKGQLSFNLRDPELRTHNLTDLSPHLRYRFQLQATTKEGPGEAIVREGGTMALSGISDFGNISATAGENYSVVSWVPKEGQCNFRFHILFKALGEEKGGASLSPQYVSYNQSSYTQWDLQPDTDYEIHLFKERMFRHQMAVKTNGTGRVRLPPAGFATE

B1: monoclonal antibody L1-9.3, produced by the hybridoma cell deposited under DSMZ ACC2841 (antibody, V domains shown)
VH: QVQLQQPGAELVKSGASVNLSCRASGYTFTRYWMLWVRQRPGHGLEWVGEINPRNDRTNYNEKFKTKATLTVDRSSSTAYMQLTSLTSEDSAVYFCALGGGYAMDYWGQGTSVTVSS
VL: DIQMTQTTSSLSAFLGDRVTISCRASQDISNYLNWYQQKPDGTVKLLIYYTSRLHSGVPSRFSGSGSGTDYSLTISNLEQEDFATYFCQQGNTLPWTFGGGTKLEIK
For the molecule B1, in test [1], the Kd (in general, the concentration at which binding is half-saturated) came out at 85 pM; the koff (in general, the first-order rate constant of dissociation) was 2.2e-05 s⁻¹; the kon (usually the second-order rate constant of association) worked out at 260000 M⁻¹ s⁻¹. In addition, in test [2], the Kd was determined as 85 pM, the koff came to 2.2e-05 s⁻¹ and the kon stood at 260000 M⁻¹ s⁻¹.

B2: humanised antibody L1-hu3 (antibody, V domains shown)
VH: EVQLVQSGGGLVQSGGSLRLSCRASGYTFTRYWMLWVRQRPGKGLEWVAEINPRNDRTNYNEKFKTRFTISVDRSKNTLYLQMDSLRAEDTAVYFCALGGGYAMDYWGQGTLVTVSS
VL: DIQMTQSPSSLSASVGDRVTITCRASQDISNYLNWYQQKPGKAPKLLIYYTSRLHSGVPSRFSGSGSGTDYTLTISSLQPEDFATYFCQQGNTLPWTFGGGTKLEIK
B2: in test [2], the Kd was 81 pM, the koff stood at 6.5e-05 s⁻¹ and the kon stood at 800000 M⁻¹ s⁻¹.

B3: L1-9.3 single chain antibody (murine L1-9.3 scFv fused to human c kappa constant region) (scFv)
scFv: DIQMTQTTSSLSAFLGDRVTISCRASQDISNYLNWYQQKPDGTVKLLIYYTSRLHSGVPSRFSGSGSGTDYSLTISNLEQEDFATYFCQQGNTLPWTFGGGTKLEIKRTSGPGDGGKGGPGKGPGGEGTKGTGPGGQVQLQQPGAELVKSGASVNLSCRASGYTFTRYWMLWVRQRPGHGLEWVGEINPRNDRTNYNEKFKTKATLTVDRSSSTAYMQLTSLTSEDSAVYFCALGGGYAMDYWGQGTSVTVSSGGAAAAPSVFIFPPSDEQLKSGTASVVCLLNNFYPREAKVQWKVDNALQSGNSQESVTEQDSKDSTYSLSSTLTLSKADYEKHKVYACEVTHQGLSSPVTKSFNRGESHHHHHH
notes: The expressed portion may include the pelB leader, which is cleaved off
Take B3: the binding result with streptavidin was “no binding”.

B4: L1-9.3Hu single chain antibody (humanized L1-9.3Hu scFv fused to human c kappa constant region) (scFv)
scFv: DIQMTQSPSSLSASVGDRVTITCRASQDISNYLNWYQQKPGKAPKLLIYYTSRLHSGVPSRFSGSGSGTDYTFTISSLQPEDFATYFCQQGNTLPWTFGGGTKLEIKRTSGPGDGGKGGPGKGPGGEGTKGTGPGGEVQLVQSGGGLVQSGGSLRLSCRASGYTFTRYWMLWVRQRPGHGLEWVGEINPRNDRTNYNEKFKTRFTISVDRSKSTAYLQMDSLRAEDTAVYFCALGGGYAMDYWGQGTLVTVSSGGAAAAPSVFIFPPSDEQLKSGTASVVCLLNNFYPREAKVQWKVDNALQSGNSQESVTEQDSKDSTYSLSSTLTLSKADYEKHKVYACEVTHQGLSSPVTKSFNRGESHHHHHH
notes: The expressed portion may include the pelB leader
Take B4: in the test with streptavidin, the binding result is “no binding”.

B5: L1-9.3Hu3 single chain antibody (humanized L1-9.3Hu3 scFv fused to human c kappa constant region) (scFv)
scFv: B4 scFv with F73L, H179K, G185A, S213N, A215L
notes: The expressed portion may include the pelB leader; also called L1-9Hu3
For B5, the binding result with streptavidin is on record as “no binding”.

These data come from US8580258 (DEUTSCHES KREBSFORSCHUNGSZENTRUM STIFTUNG DES OFFENTLICHEN …, dated 2013).
